This is an account of results in US20080058636A1, “METHODS OF MYOCARDIAL IMAGING” (Epix Pharmaceuticals, Inc., priority 2005, published 2008).

Bridge positions count the residues as written; N and C are the ends. Square brackets hold non-standard residues; d marks the D form. Ends that are not written are not given here. GdDTPA‑thiourea = GdT is GdDTPA-thiourea (Gd-DTPA chelate attached through a thiourea); Cha = N[C@@H](CC1CCCCC1)C(=O)O

human collagen type I (acid soluble, extracted from placenta, Sigma C7774) (human), sequence (P02452 162-1218 limits assumed, chain 1 of 2): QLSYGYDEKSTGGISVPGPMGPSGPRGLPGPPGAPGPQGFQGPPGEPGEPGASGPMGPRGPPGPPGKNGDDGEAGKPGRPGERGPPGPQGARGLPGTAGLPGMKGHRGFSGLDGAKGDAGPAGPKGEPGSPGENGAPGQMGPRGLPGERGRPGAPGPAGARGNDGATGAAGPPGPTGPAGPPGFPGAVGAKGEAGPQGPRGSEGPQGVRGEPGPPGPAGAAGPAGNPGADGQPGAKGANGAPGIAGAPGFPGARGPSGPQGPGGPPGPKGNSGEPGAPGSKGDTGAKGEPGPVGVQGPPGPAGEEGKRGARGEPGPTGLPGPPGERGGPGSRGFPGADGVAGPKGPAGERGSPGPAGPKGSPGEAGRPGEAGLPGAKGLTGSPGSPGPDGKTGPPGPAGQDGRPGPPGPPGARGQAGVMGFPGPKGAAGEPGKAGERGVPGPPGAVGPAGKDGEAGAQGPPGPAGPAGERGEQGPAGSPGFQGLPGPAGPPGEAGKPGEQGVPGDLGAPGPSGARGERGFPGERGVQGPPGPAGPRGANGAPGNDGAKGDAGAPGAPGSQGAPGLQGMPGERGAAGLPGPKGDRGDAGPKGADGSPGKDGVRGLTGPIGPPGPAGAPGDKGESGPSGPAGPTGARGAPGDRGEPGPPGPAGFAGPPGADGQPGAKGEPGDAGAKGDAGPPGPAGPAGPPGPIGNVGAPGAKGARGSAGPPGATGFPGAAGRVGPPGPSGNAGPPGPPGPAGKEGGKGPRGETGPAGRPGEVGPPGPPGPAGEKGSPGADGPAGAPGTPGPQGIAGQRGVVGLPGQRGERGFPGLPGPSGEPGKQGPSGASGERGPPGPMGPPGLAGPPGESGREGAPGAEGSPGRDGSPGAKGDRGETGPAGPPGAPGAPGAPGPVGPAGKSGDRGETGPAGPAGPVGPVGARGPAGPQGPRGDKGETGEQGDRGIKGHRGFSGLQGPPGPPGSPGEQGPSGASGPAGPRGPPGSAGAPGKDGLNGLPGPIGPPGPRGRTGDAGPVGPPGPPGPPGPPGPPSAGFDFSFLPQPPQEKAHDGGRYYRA
human collagen type I (acid soluble, extracted from placenta, Sigma C7774) (human), sequence (P08123 80-1119 limits assumed, chain 2 of 2, further chain): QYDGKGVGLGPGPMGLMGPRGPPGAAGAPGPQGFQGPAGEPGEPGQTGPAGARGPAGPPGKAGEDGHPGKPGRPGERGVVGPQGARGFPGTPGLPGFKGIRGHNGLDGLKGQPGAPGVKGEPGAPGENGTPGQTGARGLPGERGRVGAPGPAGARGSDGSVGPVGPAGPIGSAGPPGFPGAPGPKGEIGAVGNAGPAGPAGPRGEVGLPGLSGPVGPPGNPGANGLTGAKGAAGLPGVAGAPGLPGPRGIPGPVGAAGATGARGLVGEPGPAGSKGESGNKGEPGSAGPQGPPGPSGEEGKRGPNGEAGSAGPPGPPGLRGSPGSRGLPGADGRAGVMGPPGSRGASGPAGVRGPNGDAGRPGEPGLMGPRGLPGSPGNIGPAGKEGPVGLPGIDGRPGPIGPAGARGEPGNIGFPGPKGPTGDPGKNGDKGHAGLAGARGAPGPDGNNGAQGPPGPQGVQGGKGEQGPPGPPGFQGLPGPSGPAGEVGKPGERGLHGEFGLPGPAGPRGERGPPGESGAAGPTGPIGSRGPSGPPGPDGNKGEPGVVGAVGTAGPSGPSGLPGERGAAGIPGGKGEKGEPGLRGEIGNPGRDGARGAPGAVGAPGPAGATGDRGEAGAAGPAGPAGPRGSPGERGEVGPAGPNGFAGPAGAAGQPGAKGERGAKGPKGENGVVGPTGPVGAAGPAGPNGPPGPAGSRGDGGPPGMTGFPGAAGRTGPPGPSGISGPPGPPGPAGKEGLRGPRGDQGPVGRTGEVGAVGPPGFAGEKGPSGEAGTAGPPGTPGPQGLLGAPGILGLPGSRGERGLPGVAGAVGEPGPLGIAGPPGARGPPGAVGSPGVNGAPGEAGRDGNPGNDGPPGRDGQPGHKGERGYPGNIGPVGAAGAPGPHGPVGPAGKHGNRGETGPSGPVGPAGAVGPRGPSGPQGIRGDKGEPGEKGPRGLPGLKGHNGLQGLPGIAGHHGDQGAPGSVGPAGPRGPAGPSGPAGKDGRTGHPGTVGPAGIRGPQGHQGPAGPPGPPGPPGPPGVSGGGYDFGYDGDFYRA

The first assay deals with rat collagen (acid soluble, type I, rat tail, Upstate 08-115) (rat) (UniProt P02454). In words: dried collagen assay, 5 uM each.
rat collagen (acid soluble, type I, rat tail, Upstate 08-115) (rat), sequence (P02454 152-1207, chain 1 of 2): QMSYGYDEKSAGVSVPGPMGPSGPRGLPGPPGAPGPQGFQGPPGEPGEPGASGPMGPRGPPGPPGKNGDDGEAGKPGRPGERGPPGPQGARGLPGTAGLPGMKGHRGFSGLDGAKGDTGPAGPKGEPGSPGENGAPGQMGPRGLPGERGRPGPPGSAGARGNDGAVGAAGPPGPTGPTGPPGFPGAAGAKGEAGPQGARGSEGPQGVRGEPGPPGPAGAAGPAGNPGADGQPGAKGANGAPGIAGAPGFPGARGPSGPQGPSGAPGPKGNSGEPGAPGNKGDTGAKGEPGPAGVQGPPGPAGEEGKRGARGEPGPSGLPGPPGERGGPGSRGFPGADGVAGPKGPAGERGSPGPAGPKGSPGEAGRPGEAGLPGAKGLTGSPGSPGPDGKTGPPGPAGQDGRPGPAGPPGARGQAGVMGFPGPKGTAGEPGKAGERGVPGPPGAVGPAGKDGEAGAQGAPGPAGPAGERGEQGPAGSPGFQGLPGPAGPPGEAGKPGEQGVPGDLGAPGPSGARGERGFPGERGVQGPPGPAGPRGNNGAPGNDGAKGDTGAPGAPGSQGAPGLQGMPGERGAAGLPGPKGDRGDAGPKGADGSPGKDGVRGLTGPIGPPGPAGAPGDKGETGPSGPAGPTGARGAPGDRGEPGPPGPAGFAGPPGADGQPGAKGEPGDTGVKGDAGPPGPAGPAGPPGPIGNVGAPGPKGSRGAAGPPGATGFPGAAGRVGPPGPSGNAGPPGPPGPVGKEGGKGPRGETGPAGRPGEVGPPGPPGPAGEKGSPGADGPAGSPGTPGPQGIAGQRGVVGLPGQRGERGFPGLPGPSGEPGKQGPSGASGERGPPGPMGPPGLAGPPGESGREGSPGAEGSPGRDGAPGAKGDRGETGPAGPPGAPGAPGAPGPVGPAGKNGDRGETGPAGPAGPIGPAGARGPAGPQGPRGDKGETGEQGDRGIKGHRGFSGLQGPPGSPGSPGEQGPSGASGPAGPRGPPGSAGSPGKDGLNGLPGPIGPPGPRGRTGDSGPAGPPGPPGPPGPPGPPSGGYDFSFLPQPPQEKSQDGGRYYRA
rat collagen (acid soluble, type I, rat tail, Upstate 08-115) (rat), sequence (P02466 86-1125, chain 2 of 2, further chain): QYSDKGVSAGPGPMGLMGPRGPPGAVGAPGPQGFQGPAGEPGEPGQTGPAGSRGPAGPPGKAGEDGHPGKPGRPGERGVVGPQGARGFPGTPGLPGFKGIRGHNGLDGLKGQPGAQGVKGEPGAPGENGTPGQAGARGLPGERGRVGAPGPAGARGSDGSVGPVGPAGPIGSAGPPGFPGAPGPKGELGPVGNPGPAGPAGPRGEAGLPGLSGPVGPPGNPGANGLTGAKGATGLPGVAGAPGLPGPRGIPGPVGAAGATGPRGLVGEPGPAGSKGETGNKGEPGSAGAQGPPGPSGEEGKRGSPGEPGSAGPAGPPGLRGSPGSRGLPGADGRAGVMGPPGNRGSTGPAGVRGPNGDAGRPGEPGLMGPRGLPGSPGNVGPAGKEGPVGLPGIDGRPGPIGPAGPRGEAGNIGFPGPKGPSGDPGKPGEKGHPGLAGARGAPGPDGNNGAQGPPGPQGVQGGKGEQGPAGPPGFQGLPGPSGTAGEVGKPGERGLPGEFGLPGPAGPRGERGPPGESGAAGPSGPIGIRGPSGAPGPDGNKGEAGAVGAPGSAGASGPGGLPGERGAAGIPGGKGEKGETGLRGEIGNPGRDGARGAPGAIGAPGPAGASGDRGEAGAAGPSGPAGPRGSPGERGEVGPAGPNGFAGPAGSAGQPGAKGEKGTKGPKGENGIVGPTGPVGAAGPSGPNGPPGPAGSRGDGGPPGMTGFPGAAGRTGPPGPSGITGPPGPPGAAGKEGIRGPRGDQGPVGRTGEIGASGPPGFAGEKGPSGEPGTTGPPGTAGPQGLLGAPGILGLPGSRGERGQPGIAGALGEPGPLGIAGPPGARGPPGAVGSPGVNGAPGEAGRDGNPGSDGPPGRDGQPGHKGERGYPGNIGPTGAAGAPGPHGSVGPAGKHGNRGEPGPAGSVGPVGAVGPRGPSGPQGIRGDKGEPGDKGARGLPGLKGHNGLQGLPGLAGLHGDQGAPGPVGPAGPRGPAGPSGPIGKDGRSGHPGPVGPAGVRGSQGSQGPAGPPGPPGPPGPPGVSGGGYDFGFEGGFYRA
GQWSCTTRFPHHYCLYG [Compound ID 870] came in with a Rat binding of 28%.
Consider GQWHCTRRFPHHYCLYG [Compound ID 900], for which the Rat binding amounted to 1%.
Same read-out and setting: with GQWTCSGDEYAWHCNYE [Compound ID 832] the figure was 4%; with GQWHCTNRFPHHYCLYG [Compound ID 897], 1%.
Regarding DWTCSADEYTWHCNYE [Compound ID 835], the Rat binding was 9%.
On the same count and under the same terms, the value for GQWHCTSRFPHHYCLYG [Compound ID 898] was 3%; that for GDWHCTTLFPHHYCLYG [Compound ID 910] was 0%.
Still for that read-out and setting: with GQWTCSGDEYTWACNYE [Compound ID 833] the figure was 4%; with GQWHCTTDFPHHYCLFG [Compound ID 890], 15%; with GAWTCSGDEYTWHCNYE [Compound ID 830], 11%.
Molecule GQWHCTTRFPHHTCLYG [Compound ID 905] had a Rat binding of 2%.
Same read-out and setting: the value for GQWHCTYRFPHHYCLYG [Compound ID 899] was 14%; that for GQWHCTTRYPHHYCLYG [Compound ID 859] was 38%; that for GQWHCTTRFPHHYCKYG [Compound ID 815] was 59%.
Molecule {GdDTPA‑thiourea}-GQWHCTTRFPHHYCLYGK(GdDTPA‑thiourea)-NH2 (disulfide 5-14) [Compound ID 807] returned a Rat binding of 45%.
Take GQWTCSGDAYTWHCAYE [Compound ID 820]: the Rat binding was found to be 29%.
Regarding DWTCSLDEYTWHCNYE [Compound ID 847], the Rat binding is 7%.
The same measure, in the same setting: with DWTCSYDEYTWHCNYE [Compound ID 829] the figure was 21%.
On the same count and under the same terms, with DWTCSSDEYTWHCNYE [Compound ID 836] the figure was 8%; with GAWHCTTYFPHHYCLYG [Compound ID 915], 0%.
The same measure, in the same setting: the value for KKWHCYTYFPHHYCLYG [Compound ID 802] was 45%; that for GAWHCTTRFPHHYCLYG [Compound ID 857] was 69%; that for DWTCSRDEYTWHCNYE [Compound ID 821] was 29%.
DWTCRGDEYTWHCNYE [Compound ID 822] gave a Rat binding of 20%.
The same measure, in the same setting: with DWTCSGDEYYWHCNYE [Compound ID 834] the figure was 9%.
The same measure, in the same setting: with GQWTCYGDEYTWYCNYE [Compound ID 826] the figure was 71%; with GQWACTTRFPHHYCLYG [Compound ID 876], 26%.
Still for that read-out and setting: with GQWHCATRFPHHYCLYG [Compound ID 877] the figure was 41%; with DWTCSGDEYRWHCNYE [Compound ID 845], 10%.
Molecule DWTCSGDEYTWYCNYE [Compound ID 842] gave a Rat binding of 9%.
On the same count and under the same terms, with GQWACSGDEYTWHCNYE [Compound ID 840] the figure was 3%; with PPWHCTTLFPHHYCLYG [Compound ID 912], 0%.
PPQWHCTTRFPHHYCLYG [Compound ID 854] returned a Rat binding of 56%.
As to GQWHCTTIFPHHYCLYG [Compound ID 917], the Rat binding turned out to be 0%.
On the same count and under the same terms, with GSWHCTTLFPHHYCLYG [Compound ID 911] the figure was 0%; with GQWHCTTRFPHHYCAYG [Compound ID 855], 15%.
On the same count and under the same terms, the value for GQWHCTT[Cha]FPHHYCLYG (disulfide 5-14 (inferred)) [Compound ID 918] was 0%.
Same read-out and setting: the value for GQWHCTTRFPSHYCLYG [Compound ID 880] was 0%.
GQWHCTTDYPHHYCLYG [Compound ID 895] had a Rat binding of 0%.
As for GAWHCTTLFPHHYCLYG [Compound ID 908], the Rat binding turned out to be 0%.
Still for that read-out and setting: the value for GQWTCSGDEYTWHCNYA [Compound ID 841] was 28%.
Turning to GQWHCTTRFPHAYCLYG [Compound ID 878], the Rat binding was found to be 9%.
GQWTCSGDEYTWHCNY [Compound ID 823] came in with a Rat binding of 28%.
Same read-out and setting: with GQWTCSGDAYTWHCNYE [Compound ID 838] the figure was 61%.
On the same count and under the same terms, with PWTCSGDEYAWHCNYE [Compound ID 824] the figure was 0%; with AWHCTTLFPHHYCLYG [Compound ID 909], 0%.
GQWHCTTRFPAHYCLYG [Compound ID 865]: the Rat binding was 17%.
The molecule GQWHCTTAFPHHYCLYG [Compound ID 853] came in with a Rat binding of 57%.
The molecule GQWTCSGDEYTWHCAYE [Compound ID 839] came in with a Rat binding of 11%.
In turn, GQWHCTTRFPHHRCLYG [Compound ID 902] showed a Rat binding of 2%.

A further assay addresses human collagen type I (acid soluble, extracted from placenta, Sigma C7774) (human) (UniProt P02452). Description: dried collagen assay, 5 uM each.
Take GQWSCTTRFPHHYCLYG [Compound ID 870]: the Human binding worked out at 30%.
Take GQWHCTRRFPHHYCLYG [Compound ID 900]: the Human binding was found to be 4%.
For GQWTCSGDEYAWHCNYE [Compound ID 832], the Human binding worked out at 12%.
On the same count and under the same terms, with GQWHCTNRFPHHYCLYG [Compound ID 897] the figure was 4%.
The same measure, in the same setting: with DWTCSADEYTWHCNYE [Compound ID 835] the figure was 17%.
Same read-out and setting: the value for GQWHCTSRFPHHYCLYG [Compound ID 898] was 5%; that for GDWHCTTLFPHHYCLYG [Compound ID 910] was 13%.
In turn, GQWTCSGDEYTWACNYE [Compound ID 833] gave a Human binding of 13%.
Same read-out and setting: the value for GQWHCTTDFPHHYCLFG [Compound ID 890] was 38%; that for GAWTCSGDEYTWHCNYE [Compound ID 830] was 26%; that for GQWHCTTRFPHHTCLYG [Compound ID 905] was 6%.
Still for that read-out and setting: with GQWHCTYRFPHHYCLYG [Compound ID 899] the figure was 20%.
On the same count and under the same terms, with GQWHCTTRYPHHYCLYG [Compound ID 859] the figure was 47%; with GQWHCTTRFPHHYCKYG [Compound ID 815], 66%; with {GdDTPA‑thiourea}-GQWHCTTRFPHHYCLYGK(GdDTPA‑thiourea)-NH2 (disulfide 5-14) [Compound ID 807], 48%.
For GQWTCSGDAYTWHCAYE [Compound ID 820], the Human binding was 60%.
The same measure, in the same setting: with DWTCSLDEYTWHCNYE [Compound ID 847] the figure was 16%.
In turn, DWTCSYDEYTWHCNYE [Compound ID 829] registered a Human binding of 20%.
Still for that read-out and setting: with DWTCSSDEYTWHCNYE [Compound ID 836] the figure was 13%; with GAWHCTTYFPHHYCLYG [Compound ID 915], 15%; with KKWHCYTYFPHHYCLYG [Compound ID 802], 57%.
GAWHCTTRFPHHYCLYG [Compound ID 857] displayed a Human binding of 67%.
Still for that read-out and setting: the value for DWTCSRDEYTWHCNYE [Compound ID 821] was 56%; that for DWTCRGDEYTWHCNYE [Compound ID 822] was 47%; that for DWTCSGDEYYWHCNYE [Compound ID 834] was 22%.
The same measure, in the same setting: with GQWTCYGDEYTWYCNYE [Compound ID 826] the figure was 87%.
Still for that read-out and setting: the value for GQWACTTRFPHHYCLYG [Compound ID 876] was 48%.
Molecule GQWHCATRFPHHYCLYG [Compound ID 877] showed a Human binding of 58%.
On the same count and under the same terms, the value for DWTCSGDEYRWHCNYE [Compound ID 845] was 36%; that for DWTCSGDEYTWYCNYE [Compound ID 842] was 23%; that for GQWACSGDEYTWHCNYE [Compound ID 840] was 15%.
On the same count and under the same terms, with PPWHCTTLFPHHYCLYG [Compound ID 912] the figure was 20%.
The same measure, in the same setting: the value for PPQWHCTTRFPHHYCLYG [Compound ID 854] was 64%; that for GQWHCTTIFPHHYCLYG [Compound ID 917] was 12%; that for GSWHCTTLFPHHYCLYG [Compound ID 911] was 15%.
Take GQWHCTTRFPHHYCAYG [Compound ID 855]: the Human binding was 27%.
Consider GQWHCTT[Cha]FPHHYCLYG (disulfide 5-14 (inferred)) [Compound ID 918], for which the Human binding was 19%.
GQWHCTTRFPSHYCLYG [Compound ID 880] returned a Human binding of 30%.
Still for that read-out and setting: with GQWHCTTDYPHHYCLYG [Compound ID 895] the figure was 7%; with GAWHCTTLFPHHYCLYG [Compound ID 908], 20%.
Same read-out and setting: with GQWTCSGDEYTWHCNYA [Compound ID 841] the figure was 51%.
The same measure, in the same setting: the value for GQWHCTTRFPHAYCLYG [Compound ID 878] was 8%; that for GQWTCSGDEYTWHCNY [Compound ID 823] was 53%.
GQWTCSGDAYTWHCNYE [Compound ID 838] had a Human binding of 70%.
Still for that read-out and setting: the value for PWTCSGDEYAWHCNYE [Compound ID 824] was 12%; that for AWHCTTLFPHHYCLYG [Compound ID 909] was 14%.
On the same count and under the same terms, the value for GQWHCTTRFPAHYCLYG [Compound ID 865] was 30%.
The same measure, in the same setting: with GQWHCTTAFPHHYCLYG [Compound ID 853] the figure was 66%; with GQWTCSGDEYTWHCAYE [Compound ID 839], 30%; with GQWHCTTRFPHHRCLYG [Compound ID 902], 7%.
